Source: US20160046675A1 (US Dept. of Health and Human Services, published 2016)

Biological target: RSV F glycoprotein on RSV-infected HEp-2 cells and on RSV virions (respiratory syncytial virus; strain not …, UniProt P03420 26-109; P03420 137-574)
Assay: cell-based or functional assay

RSV F glycoprotein on RSV-infected HEp-2 cells and on RSV virions, sequence (P03420 26-109, chain 1 of 2): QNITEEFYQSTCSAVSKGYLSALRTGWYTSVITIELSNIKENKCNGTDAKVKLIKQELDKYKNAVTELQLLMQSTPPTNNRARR
RSV F glycoprotein on RSV-infected HEp-2 cells and on RSV virions, sequence (P03420 137-574, chain 2 of 2): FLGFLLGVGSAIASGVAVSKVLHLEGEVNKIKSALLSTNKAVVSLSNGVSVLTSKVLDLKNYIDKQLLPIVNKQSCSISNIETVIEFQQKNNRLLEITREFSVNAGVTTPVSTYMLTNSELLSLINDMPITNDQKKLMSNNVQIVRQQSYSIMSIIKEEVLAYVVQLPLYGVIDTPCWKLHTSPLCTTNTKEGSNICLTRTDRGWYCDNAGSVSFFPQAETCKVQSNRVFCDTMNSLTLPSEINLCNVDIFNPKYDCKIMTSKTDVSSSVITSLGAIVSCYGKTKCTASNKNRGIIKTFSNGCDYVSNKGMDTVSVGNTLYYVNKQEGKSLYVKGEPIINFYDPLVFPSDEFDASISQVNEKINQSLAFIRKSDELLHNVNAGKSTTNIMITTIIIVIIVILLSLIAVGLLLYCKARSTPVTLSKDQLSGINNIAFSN

B1: AM22 monoclonal antibody (antibody, V domains shown)
VH: QVQLVQSGAEVKKPGATVKVSCKISGHTLIKLSIHWVRQAPGKGLEWMGGYEGEVDEIFYAQKFQHRLTVIADTATDTVYMELGRLTSDDTAVYFCGTLGVTVTEAGLGIDDYWGQGTLVTVSS
VL: EIVLTQSPGTLSLSPGERATLSCRASQIVSRNHLAWYQQKPGQAPRLLIFGASSRATGIPVRFSGSGSGTDFTLTINGLAPEDFAVYYCLSSDSSIFTFGPGTKVDFKR
- RSV neutralization (flow cytometry, RSV-GFP on HEp-2 cells): ~50 fold (potency relative to palivizumab)
